Here are results for 22 sequences from the DeepSol protein solubility set.

The data set is described as follows: soluble on expression in E. coli; label from the status in PepcDB or PDB records.
For the sequence “MSHDVKELIEGLNEDLAGEYSAIIMYNHNAATVSGIYRQVLKPFFESEISDEQGHALYLAEKIKTLGGTPTTIPLRVKQAEDVREMLEYARQSEYETIKRYEKRKEQAANLNMTELVVKLEDMIADETNHMEELDRLLNDKAMVLN”, the “soluble on expression in E. coli” value is reported as “soluble”.
Consider “MALHHHHHHGVTGELRRRADGIWQRILAHPFVAELYAGTLPMEKFKYYLLQDYNYLVNFAKALSLAASRAPSVDLMKTALELAYGTVTGEMANYEALLKEVGLSLRDAAEAEPNRVNVSYMAYLKSTCALEGFYQCMAALLPCFWSYAEIAERHGGKLRENPVHVYKKWASVYLSPEYRGLVERLRAVLDSSGLSAEELWPYFKEASLYELEFWQAAYEGH”, for which the “soluble on expression in E. coli” value is listed as “soluble”.
With “GPDFNWTSVLNLTHNRNKIVALDGDIKQSVEGSWFIHKIGLPYNSFYVKEFAGVDPSTGKGLYYLNTQDEKGNYNREMTDDASKAQAIPYKSADPKISGGFTNILSYKWFDLGLTFTYSLGGYSFDKTGTLIETDGSKEKSYNLPVYALDRWQKPGDRTDVPRFVLEQGAGPQNSSRYIHSTDHIRLKNLTLGFTLPGRWVQKALIENARVYFSGSNLLTWAKWKQYDPEVPVNGEVFCEAPPMRTFNFGVEITF” the entry was “not soluble”.
With “SRRLEDLHPDLQPLAHSFLRRCTDAGLDVLIYCTYRSGAEQDQLYAQGRKGSPGPIVTNARAGQSAHNFTIQNRPAARAFDAVPMVGGKPQWDQKHPHWQIMGRIGTELG” the entry was “not soluble”.
With “MSLFLDVQGTLISDHDKSLIHGAKELIDFLNAKNLPYLIITNNTKKLDFLEKLQQKGLVIKENAYIDPFSVLKHLLRPCKVAAFGADEFVKSLENLGFELDFVNPSAVLVASYDDFKFKDFATMIELARREVRFIAMHETSIYKKDGRPYPGVGSIMAMLKNAIDFEYEVVGKPSIAFYKEALNLIRRQNSKIDFEDIKIISDDFRGDLLKAKELGMKTLLVLSGKISDTKGLDTDLLDGVYPSVFEFLKDLKCQIEGHHHHHH” the entry was “not soluble”.
For “MKAYIQVKQVGKRKCSIEKMPIDFPTPPASVQELIEAVVCWQVKEYNERLQQSEMLKYLTCEEMEDKAAAGKVGFEANYNGRPAVETEAIINALQSYEDGIFRIFLDDAELGELSSSVQLKEESTLTFIRLAMLSGRLW”, the “soluble on expression in E. coli” value is recorded as “not soluble”.
With “MSKLIEYDETARRAMEVGMDKLADTVRVTLGPRGRHVVLAKAFGGPTVTNDGVTVAREIELEDPFEDLGAQLVKSVATKTNDVAGDGTTTATILAQALIKGGLRLVAAGVNPIALGVGIGKAADAVSEALLASATPVSGKTGIAQVATVSSRDEQIGDLVGEAMSKVGHDGVVSVEESSTLGTELEFTEGIGFDKGFLSAYFVTDFDNQQAVLEDALILLHQDKISSLPDLLPLLEKVAGTGKPLLIVAEDVEGEALATLVVNAIRKTLKAVAVKGPYFGDRRKAFLEDLAVVTGGQVVNPDAGMVLREVGLEVLGSARRVVVSKDDTVIVDGGGTAEAVANRAKHLRAEIDKSDSDWDREKLGERLAKLAGGVAVIKVGAATETALKERKESVEDAVAAAKAAVEEGIVPGGGASLIHQARKALTELRASLTGDEVLGVDVFSEALAAPLFWIAANAGLDGSVVVNKVSELPAGHGLNVNTLSYGDLAADGVIDPVKVTRSAVLNASSVARMVLTTETVVVDKPAKAEDHDHHHGHAH” the entry was “soluble”; with “MEKKLLRKEVLITLKSQPQAYKSEVDCKLLEAFIKTKAYQNSCVIATYLSFDYEYNTQLLIKQALCDGKRVLVPKTYPKGKMIFVDYQKDNLRTTPFGLLEPVNDRAVEKASIDLIHVPGLIFNNKGFRIGYGAGYFDRYLSDFEGDTISTIYRCQRQDFVEEKHDVAVKEVLCLLEHHHHHH”, “soluble”; with “LEQYVVVSNYKKQENSELSLQAGEVVDVIEKNESGWWFVSTSEEQGWVPATYLEAQN”, “soluble”.
The result for “MGSDKIHHHHHHMNEIKRIDTVQQYNDYFGMETLHPLVTVIDAREANPVHFCPKLYNLYAILMKDPDCGTLKYGRSIYDYQQGTMLFLAPGQVMGSDDDGQLHQPGGWLLAFHPELVRNTPLAQFIKNYSFFSYSANEALHLSEQERRTIIDCMCKIREELLHPIDKHTKSLITDNIKLLLDYCERFYDRQFETRENVNLDILARFEQTLDDYLASNLPISKGTPTVQYCADKLCLSANYLSDLLKKETGVSALKHIQQKMLDIAKERVFDVTKSISEISYELGFPYPQHFSRWFKKMVGVTPNEYRQNRNN” reads “not soluble”; that for “MGSDKIHHHHHHMVPMTRFDSATEVVRVGENRYAVELDPGYLIGTAMNGGYLMTVLQRSALAESDHLHAVSSSYHFHRPASSGPAEIETRVLKRGRTVTTVQTTLFQEGRTILTGTLATATLDPHAEPRYAAPQPAIPPQHQCRRVDPRQSHLPDDGFLARVDVDFSPDSYAALARERTVTTPELCGYVDLSARDGGSAKDPLAFLPLAVDALPPIVSLLVDWSWAPTVELTWHLRAIPEPGPLAFRSTCALVSDGWFDENVDLWDARGRLVAQSRQLARVGR”, “not soluble”; that for “MNVERWAQALKEEYPRGLLGEREALVSLLVGKGLSHAEAVEVARALEAQGYAHFLPGERPRWFFSSRSLDLKALMRALDQEFPEFVGEGDEEEEALAFLAARLGDREVAREVLEAMRAAGYVERAYSPELARDRLFFRFPEALRLLG”, “soluble”.
As to “MNVIYPLAVPKGRRLCCEVCEAPAERVCAACTVTYYCGVVHQKADWDSIHEKICQLLIPLRTSMPFYNSEEERQHGLQQLQQRQKYLIEFCYTIAQKYLFEGKHEDAVPAALQSLRFRVKLYGLSSVELVPAYLLLAEASLGLGRIVQAEEYLFQAQWTVLKSTDCSNATHSLLHRNLGLLYIAKKNYEEARYHLANDIYFASCAFGTEDIRTSGGYFHLANIFYDLKKLDLADTLYTKVSEIWHAYLNNHYQVLSQAHIQQMDLLGKLFENDTGLDEAQEAEAIRILTSILNIRESTSDKAPQKTIFVLKILVMLYYLMMNSSKAQEYGMRALSLAKEQQLDVHEQSTIQELLSLISTEDHPIT”, the “soluble on expression in E. coli” value is listed as “soluble”.
The result for “MSLIGITQRLICNDSYHEKRECLALDWGKLFNKDLFKNFTPLPLSYEIDFSYYKHLIKAVILSGGNDLSFYSPNVLSKKRDLYEKQVIEICLEEKIPLLGICRGAQMIAHYFNSHISPCENHIGKHEVFFSKEKFISNSFHNFAIEKLGEDLVELCLAKDNTIEAFKHKYENIFGIMWHIERENGLNNIQILKEWFSLIKEGHHHHHH” reads “not soluble”; that for “MSIETFTPTPLLFTPGAANKVKTLIDEEGNPRLKLRVFVTGGGCSGFQYGFTFDEDIADDDTVIERDGVGLVVDPMSFQYLAGSEVDYQEGLEGSRFVIKNPNAATTCGCGQSFSI”, “not soluble”; that for “MSLRPRAQTAGTWPRVCIESVTPSVDNGRFPVKRTVGDRICVEADAFCDGHDRIAVAVLWRPADAKAWASAPMRALGNDRWRAEFPLERIGTYEFRVEAWRDVFATLHADLEKKRAANTVLPVDVQEAVAAVQAAQARSDGALAERLQTVLTRIGAQSEPLQQLAIVLEPDTAQAMALADDKPFRSEYPVTFRVESERRAAHFSSWYELFPRSQSGDASRHGTFDDVIKRLPHIRAMNFDVLYMPPIHPIGLNNRKGRNNSVTAVEGEPGSPYAIGATDGGHTEVHAELGGLEGFRRLIEAARAQGLEVALDFAIQCAPDHPWLKEHKDWFTWRADGSIPYAENPPKKYQDIVNVDFYASGAVPDLWNTLRDAVLFWVNEGVTLFRVDNPHTKPFPFWEWLIADVRGRRPDVVFLSEAFTRPKMMYRLAKCGFSQSYTYFTWRNHKHELRAYVEELNDGVPRECFRPHFFVNTPDINPLFLQTSGRNGHLIRAALATTLSGLWGMYQGFELCEATPLAPGKEEYLDSEKFQLRAWPERVPGDIVEEITRFNQLRRMHPELQSHLGTRFYQAHNDQVLYYGKFLDAGYLSRSRSMVLVAINLDPHAGQDADIEIPLWELGLPDHASVAVEDLWDGHRFAWHGKYQHIRLEATRPFALWRIRAGEGHHHHHH”, “soluble”.
With “GSSPQREPQRVSHEQFRAALQLVVDPGDPRSYLDNFIKIGEGSTGIVCIATVRSSGKLVAVKKMDLRKQQRRELLFNEVVIMRDYQHENVVEMYNSYLVGDELWVVMEFLEGGALTDIVTHTRMNEEQIAAVCLAVLQALSVLHAQGVIHRDIKSDSILLTHDGRVKLSDFGFCAQVSKEVPRRKSLVGTPYWMAPELISRLPYGPEVDIWSLGIMVIEMVDGEPPYFNEPPLKAMKMIRDNLPPRLKNLHKVSPSLKGFLDRLLVRDPAQRATAAELLKHPFLAKAGPPASIVPLMRQNRTR” the entry was “soluble”; with “MFKKLSVLALAMIISLSITACNSKENKANDESNTKVTTADDSKEKETLFVYSGAGLKKPMDEIAKKFEKENNVKVEYSYAGSAQLIAQIETSHKGDVFIVGSEPIYSKAFEKELVGEHKTVAHHTPAIVVPKGNPANIQKLEDLNKDGVKLILGDKESNAIGKTTQKILEKNNLKSINDNVVSTAATVNEMIVQLTSSKADATIATKDSVFGNEDVEVIEIAQDKNIDQLISAGIVNYSDKKDLANKFINYIESDEAKQIFKKYGFEPVK”, “not soluble”.
With “MSLSAADMTQTIKTLALNVRLSCELLGVPESSYYERINRRPSETQLRRQHLTLKIVQLFKANRGIYGAPKIHHLLLDKEEKVGVKLVQKIMQQLQLKSVVLKKFKPGYSASDGINRKNLVQNEPTERNKVWSTDITYIPTQQGWAYLSTIMDRYTKKVIAWDLGKRMTVELVQRTLNKAIKSQDYPEAVILHSDQGSQYTSLEYEELLKYYGMTHSFSRRGYPYHNASLESWHGYLKREWVYQFKYKNFEEAYQSIFWYIEAFYNSKRIHQSLGYLTPNQFEKVSAEGHHHHHH” the entry was “not soluble”; with “MAHHHHHHMNYAAVINGPFSSNNGNNHYSRLGYTPNGYGPQPNTTEQNPQMVPYQTFNSAAGQPVNVYQQIPPTSASRDPRTNIHIGSKLFVGQVPAMTTEEQLRPVFEPYGELLEVKIMRDPLGRSKGSAWVRYETNEMAMNAINALHEKHTVPPQTNPLRVQFATPNSVRHQQLQARYAVELKVPMNQYNFGGQMGGGTQQSGMVMLRSGASPNVVPPISANVGGRYMSAPFGGGPMESSSIMSGPYTSSANCFDGVNSSGNRRDLYSPLEQPQGTAPQLYQQQQQQQRGGFSSPVVTPPSVYNQASSTRQPTARNNNTKSGGGISMGSFESGHGMVNPNSNGAPTMANEMSTLDAGIALWEARNNNGLQGQEPREAAARVRSGERKEE”, “not soluble”.
Regarding “MFGKQLFEEVGSKISETIANSPAKDVEKNIKAMLGGAFNRMDLVTREEFDIQQQVLIKTRTKLAALEARLEKLEAAQNPERAALEAAEAAAE”, the “soluble on expression in E. coli” value is given as “not soluble”.
“MLDLHLTMSNSMNYMKAATAYINLEALQHNLQRVKQQAPESKIMAVVKANGYGHGLRHIARHALGADAFGVARIEEALQLRASGVVKPILLLEGFYSPGDLPVLVTNNIQTVVHCEEQLQALEQAQLETPVMVWLKVDSGMHRLGVRPEQYQDFVARLHQCENVAKPLRYMSHFGCADELDKSTTVEQTELFLSLTQGCQGERSLAASAGLLAWPQSQLEWVRPGIIMYGVSPFVEKSAVQLGYQPVMTLKSHLIAVREVKAGESVGYGGTWTSQRDTKIGVIAIGYGDGYPRTAPNGTPVVVNGRRVPIAGRVSMDMLTVDLGPDACDRVGDEAMLWGNELPVEEVAAHIGTIGYELVTKLTSRVEMSYYGAGV”: the “soluble on expression in E. coli” value is reported as “not soluble”.
